Results: PMC4608562, “Carbohydrate Recognition Specificity of Trans-sialidase Lectin Domain from Trypanosoma congolense” (PLoS Neglected Tropical Diseases, 2015)
Several values for one entry are separate records, joined by “and”; a condition that tells them apart may be missing. Equal entries are not always repeated.

What was measured:
[1] = target: recombinant TconTS1 (Trypanosoma congolense trans-sialidase 1; CD, α-helix and LD) (Trypanosoma congolense); assay: SEC; Superdex 200 10/300 GL, 10 mM phosphate buffer pH 7.4, 4°C, 0.5 mL/min, 100 to 300 μg TconTS in 500 μL, detection at 280 nm; column calibrated with gel filtration markers 29,000-700,000 Da; monomer, dimer and oligomer peaks
[2] = target: TconTS1 enzymatically deglycosylated with EndoHf (native conditions) (Trypanosoma congolense); assay: as above
[3] = target: recombinant TconTS2 (Trypanosoma congolense trans-sialidase 2; CD, α-helix and LD) (Trypanosoma congolense); assay: as above
[4] = target: T1, TconTS2-LD (Trypanosoma congolense, UniProt W0YLD6); assay: STD NMR; format: binding; conditions: 5.5 uM protein, 3.45 mM ligand; deuterated phosphate pD 7.4; site distinct from mannotriose site
T1 construct: gene TS2; C-terminal lectin-like domain without the CD-LD linker alpha-helix; N-terminal His-MBP and C-terminal SNAP-Strep tags kept; expressed in E. coli Rosetta pLacI

recombinant TconTS1 (Trypanosoma congolense trans-sialidase 1; CD, α-helix and LD) (enzyme)
ratio of monomer to dimer (monomer:dimer) [1]: 1 | stoichiometry N [1]: 2 and 4

TconTS1 enzymatically deglycosylated with EndoHf (native conditions) (enzyme)
stoichiometry N [2]: 2

recombinant TconTS2 (Trypanosoma congolense trans-sialidase 2; CD, α-helix and LD) (enzyme)
stoichiometry N [3]: 2

OC[C@H]1O[C@@H](O[C@H]2[C@H](O)[C@@H](O)[C@@H](O)O[C@@H]2CO)[C@H](O)[C@@H](O)[C@H]1O [lactose, β-D-galactosyl-(1–4)-α-D-glucose]
STD NMR [4]: Binding of lactose to TconTS2-LD was also clearly observed (Fig 3B)
